Experimental data: IntAct's records for PubMed 23455607

Key:
lamp2_rat Lamp2 = lamp2_rat Lamp2 (UniProt P17046)
lamp2_human LAMP2 [1] = target: lamp2_human LAMP2 (UniProt P13473)
lamp2_human LAMP2 [2] = target: lamp2_human LAMP2 (UniProt P13473); remark: listed apart in the source

Chain of lamp2_rat Lamp2 (P17046 whole entry): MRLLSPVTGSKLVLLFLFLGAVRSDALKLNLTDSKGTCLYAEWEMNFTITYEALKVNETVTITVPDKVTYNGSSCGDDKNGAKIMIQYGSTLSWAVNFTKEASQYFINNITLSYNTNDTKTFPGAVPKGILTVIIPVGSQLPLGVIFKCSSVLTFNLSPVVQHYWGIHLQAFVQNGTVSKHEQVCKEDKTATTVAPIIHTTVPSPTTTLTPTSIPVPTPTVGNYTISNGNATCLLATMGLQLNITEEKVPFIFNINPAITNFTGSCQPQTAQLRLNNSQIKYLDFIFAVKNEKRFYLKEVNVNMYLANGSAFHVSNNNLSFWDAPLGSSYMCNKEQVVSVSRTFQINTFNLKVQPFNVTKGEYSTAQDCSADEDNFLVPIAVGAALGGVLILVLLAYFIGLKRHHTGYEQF
Chain of lamp2_human LAMP2 (P13473 whole entry): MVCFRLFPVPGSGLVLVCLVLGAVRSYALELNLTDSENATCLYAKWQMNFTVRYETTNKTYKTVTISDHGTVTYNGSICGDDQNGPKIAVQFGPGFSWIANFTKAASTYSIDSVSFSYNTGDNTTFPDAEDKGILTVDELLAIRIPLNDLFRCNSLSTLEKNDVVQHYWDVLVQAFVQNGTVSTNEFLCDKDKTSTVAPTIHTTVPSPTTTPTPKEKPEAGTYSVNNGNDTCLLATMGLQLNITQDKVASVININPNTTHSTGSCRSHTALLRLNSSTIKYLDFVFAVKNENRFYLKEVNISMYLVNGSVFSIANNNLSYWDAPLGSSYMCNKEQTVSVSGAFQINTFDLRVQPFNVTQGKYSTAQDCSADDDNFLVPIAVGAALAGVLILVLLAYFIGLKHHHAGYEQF

Row | Substance | effect of a mutation on the interaction (lamp2_rat Lamp2) | effect of a mutation on the interaction (lamp2_human LAMP2 [1]) | effect of a mutation on the interaction (lamp2_human LAMP2 [2])
1 | Leucine-rich repeat serine/threonine-protein kinase 2 (Homo sapiens), Q5S007 G2019S | increasing interaction | increasing interaction | 
2 | Leucine-rich repeat serine/threonine-protein kinase 2 (Homo sapiens), Q5S007 R1441C | increasing interaction |  | increasing interaction
